Laboratory results taken from paper doi:10.1101/2024.03.07.581839 (bioRxiv, 2024).

Biological target: the molecule itself
Experiment: cryo-EM structure

B1: human GPR156 (receptor)
chain: MEPEINCSELCDSFPGQELDRRPLHDLCKTTITSSHHSSKTISSLSPVLLGIVWTFLSCGLLLILFFLAFTIHCRKNRIVKMSSPNLNIVTLLGSCLTYSSAYLFGIQDVLVGSSMETLIQTRLSMLCIGTSLVFGPILGKSWRLYKVFTQRVPDKRVIIKDLQLLGLVAALLMADVILLMTWVLTDPIQCLQILSVSMTVTGKDVSCTSTSTHFCASRYSDVWIALIWGCKGLLLLYGAYLAGLTGHVSSPPVNQSLTIMVGVNLLVLAAGLLFVVTRYLHSWPNLVFGLTSGGIFVCTTTINCFIFIPQLKQWKAFEEENQTIRRMAKYFSTPNKSFHTQYGEEENCHPRGEKSSMERLLTEKNAVIESLQEQVNNAKEKIVRLMSAECTYDLPEGAAPPASSPNKDVQAVASVHTLAAAQGPSGHLSDFQNDPGMAARDSQCTSGPSSYAQSLEGPGKDSSFSPGKEEKISDSKDFSDHLDSGCSQKPWTEQSLGPERGDQVPMNPSQSLLPERGGSDPQRQRHLENSEEPPERRSRVSSVIREKLQEVLQDLGLGPEASLSTAPSCHQQTWKNSAAFSPQKMPLSKELGFSPYMVRRRRAAQRARSHFPGSAPSSVGHRANRTVPGAHSRLHVQNGDSPSLAPQTTDSRVRRPSSRKPSLPSDPQDRPGTLEGSKQSQTEPEGARGSKAAFLRQPSGSGRAPSPAAPCLSKASPDLPEQWQLWPPVPSGCASLSSQHSYFDTESSSSDEFFCRCHRPYCEICFQSSSDSSDSGTSDTDPEPTGGLASWEKLWARSKPIVNFKDDLKPTLV
  stoichiometry N: 2
